Test [1] deals with JK6L (a multiple myeloma cell line). In words: ADCC set up II, JK6L cells. The settings on record: in words. The class given is cell-based. On the procedure:
(§1) Human blood from human volunteers (university Erlangen, Erlangen, Germany) was diluted twice in RPMI 1640 and blood cells were layered on Ficoll (Lymphocyte Separation Medium […], 710 g, RT, 20 min; BioWhittaker, Cambrex Bio Science Verviers, Verviers, Belgium, cat. 17-829E, lot no. 0148 32). Peripheral blood mononuclear cells (MNCs) were collected from the interphase, washed and resuspended in RPMI 1640 culture medium supplemented with 10% FCS, 2 mM L-glutamine, 5 U/ml penicillin, 50 μg/ml streptomycin (all derived from BioWhittaker) to which 25 mM HEPES (BioWhittaker) was added.
(§2) Target B-cells (fresh plasma cell leukemia tumor cells, JK6L and AMO-1 B-cell lines, obtained from Dr. T. Valerius, University of Erlangen, Erlangen, Germany) were labeled with 20 μCi ^51Cr (Amersham Biosciences, Uppsala, Sweden) for 2 hours. After extensive washing in RPMI-10, cells were adjusted to 1×10^5 cells/ml. […] After incubation (3 hr, 37° C.), assays were stopped by centrifugation, and 51Cr release from triplicates was measured in counts per minute (cpm) in a scintillation counter. Percentage of cellular cytotoxicity was calculated using the following formula: […]
(§3) with maximal ^51Cr release determined by adding perchloric acid (3% final concentration) to target cells, and basal release was measured in the absence of sensitizing antibodies and effector cells.

The subject of test [2] is AMO-1 (a multiple myeloma cell line). In words: ADCC set up II, AMO-1 cells. The class given is cell-based. The settings on record: CD38 expression is low. The protocol:
as §1, §2, §3

Another test concerns Daudi-luc cells. The test is described as follows: ADCC (51Cr release) of Daudi-luc cells. The class given is cell-based. As to conditions: for lysis of Daudi cells by ADCC: in words. On the procedure:
Daudi-luc cells, fresh multiple myeloma tumor cells, fresh Plasma Cell Leukemia tumor cells and JK6L and AMO-1 multiple myeloma cells were collected (5×10^6 cells) in RPMI^++ (RPMI 1640 culture medium supplemented with 10% cosmic calf serum (HyClone, Logan, UT, USA)), to which 100 μCi ^51Cr (Chromium-51; Amersham Biosciences Europe GmbH, Roosendaal, The Netherlands) was added, and the mixture was incubated in a 37° C. water bath for 1 hr. After washing of the cells (twice in PBS, 1500 rpm, 5 min), the cells were resuspended in RPMI^++ and counted by trypan blue exclusion. Cells were brought at concentration of 1×10^5 cells/ml.
Fresh peripheral blood mononuclear cells (healthy volunteers, UMC Utrecht, Utrecht, The Netherlands) were isolated from 40 ml of heparin blood by Ficoll (Bio Whittaker; lymphocyte separation medium, cat 17-829E) according to the manufacturer's instructions. After resuspension of cells in RPMI^++, cells were counted by trypan blue exclusion and brought at concentration of 1×10^7 cells/ml.
50 μl of ^51Cr-labeled targets cells were pipetted into 96-well plates, and 50 μl of antibody was added, diluted in RPMI^++ (final concentrations 10, 1, 0.1, 0.01 μg/ml). Cells were incubated (RT, 15 min), and 50 μl effector cells were added, resulting in an effector to target ratio of 100:1 (for determination of maximal lysis, 100 μl 5% Triton-X100 was added instead of effector cells; for determination of spontaneous lysis, 50 μl target cells and 100 μl RPMI++ were used). Cells were spun down (500 rpm, 5 min), and incubated (37° C., 5% CO2, 4 hr). After spinning down cells (1500 rpm, 5 min), 100 μl of supernatant was harvested into micronic tubes, and counted in gamma counter. The percentage specific lysis was calculated as follows:
(cpm sample−cpm target cells only)/(cpm maximal lysis−cpm target cells only)
wherein cpm is counts per minute.

For test [3], the target named is T1, His-tagged extracellular domain of human CD38 (Homo sapiens, UniProt P28907).
T1 construct: poly-His-tag (N); made in house; secreted into culture supernatant
In words: Enzymatic activity of recombinant CD38 (cGDPR production). The settings on record: for cGDPribose production / reduced production of cGDPR: after 90 minutes; for inhibitory effect on the production of cGDPR: recombinant His-CD38. Format: biochemical. On the procedure:
The enzymatic activity of human CD38 was measured in an assay essentially as described in Graeff et al., J. Biol. Chem. 269, 30260-30267 (1994). Briefly, substrate NGD^+ (80 μM) was incubated with CD38 (0.6 μg/ml His-tagged extracellular domain of human CD38, see Example 3 regarding purification of His-CD38) in a buffer containing 20 mM Tris-HCl, pH 7.0. The production of cGDPR can be monitored spectrophotometrically at the emission wavelength of 410 nm (excitation at 300 nm). In this example an excitation filter of 340±60 nm and an emission filter of 430±8 nm was used.
To test the effect of -003, -005 and -024 on the enzymatic activity of CD38, recombinant His-CD38 protein was pre-incubated for 15 min at room temperature with various concentrations (30, 3, 0.3 and 0.03 μg/ml) of the different antibodies before adding the substrate NGD^+. The production of cyclic GDP-ribose (cGDPR) was recorded at different time points after addition of […] (3, 6, 9, 12, 30, 45, 60, 75 and 90 min).

Another test deals with fresh MM tumor cells. The test is described as follows: Binding to fresh multiple myeloma tumor cells by flow cytometry. Further details: species or system human. The settings on record: for binding to MM cells: in words. The protocol: Fresh MM tumor cells were obtained from Dr. Lokhorst (University Medical Center Utrecht, Utrecht, The Netherlands. Tumor cells were isolated from bone marrow of multiple myeloma patients by Ficoll (Bio Whittaker; lymphocyte separation medium, cat 17-829E) gradient centrifugation. After harvesting and counting, MM cells (100,000 cells/well) were resuspended with 25 μl FITC-labeled CD38-specific antibodies and 25 μl CD138. After incubation (4° C., 30 min), cells were washed in PBS-BSA and PE-labeled goat-anti-mouse IgG (1:200; Jackson ImmunoResearch Europe Ltd. Soham, UK) was added. After incubation (4° C., 30 min) and washing of the cells in PBS-BSA, fluorescence was measured by flow cytometry.
A general note: Flow cytometry measures light scatter and fluorescence of single cells or particles in a stream.

“Also recorded” adds a separate entry of the source.

On to “-005: human monoclonal IgG1 anti-CD38 antibody, VL region SEQ ID No:12 and VH region SEQ ID No:17”, for which, in test [1], the “lysis of JK6L by ADCC” value is reported as “lysis is induced”. Further, the “lysis of AMO-1 by ADCC” value in test [2] was “lysis is induced”. For the same molecule, the “Maximal lysis (%)” value in the test with Daudi-luc cells (ADCC, Daudi target cells, n=5) came out at 49.2%. In addition, in the test on Daudi-luc cells (ADCC, Table 2 first column, effector to target ratio 100:1), the “EC50 Daudi-luc” value came to 0.0045 µg/mL. In the test on Daudi-luc cells (Daudi-luc cells), the “ADCC performance compared to rituximab” value was “slightly better than rituximab”. Further, the “lysis of Daudi cells by ADCC” value in the test with Daudi-luc cells was “induce lysis by ADCC; also recorded: mediate lysis”. The cGDPribose production was 102 % of NGD control in test [3] (0.03 μg/ml antibody), 98 % of NGD control in test [3] (0.3 μg/ml antibody), 66 % of NGD control in test [3] (3 μg/ml antibody) and 68 % of NGD control in test [3] (30 μg/ml antibody). Moreover, the “reduced production of cGDPR” value turned out to be 34% in test [3] (3 μg/ml) and 32% in test [3] (30 μg/ml). In addition, the “inhibitory effect on the production of cGDPR” value in test [3] is “pronounced inhibitory effect”. The “EC50 MM cells” value with fresh MM tumor cells (binding, flow cytometry) was found to be 0.04 µg/mL. The “binding to MM cells” value in the test with fresh MM tumor cells is “bind”.

B1: -024: human monoclonal IgG1 anti-CD38 antibody, VL region SEQ ID No:22 and VH region SEQ ID No:27 (antibody, listed as Homo sapiens, V domains shown)
VH: EVQLVQSGAEVKKPGESLKISCKGSGYSFSNYWIGWVRQMPGKGLEWMGIIYPHDSDARYSPSFQGQVTFSADKSISTAYLQWSSLKASDTAMYYCARHVGWGSRYWYFDLWGRGTLVTVSS
VL: EIVLTQSPATLSLSPGERATLSCRASQSVSSYLAWYQQKPGQAPGLLIYDASNRASGIPARFSGSGSGTDFTLTISSLEPEDFAVYYCQQRSNWPLTFGGGTKVEIK
With B1, in the test on Daudi-luc cells, the “lysis of Daudi cells by ADCC” value is given as “induce lysis by ADCC”. In addition, the cGDPribose production in test [3] (0.03 μg/ml antibody) is 105 % of NGD control; in test [3] (0.3 μg/ml antibody), 104 % of NGD control; in test [3] (3 μg/ml antibody) it was 100 % of NGD control; in test [3] (30 μg/ml antibody), 99 % of NGD control. Moreover, the “inhibitory effect on the production of cGDPR” value in test [3] was “No inhibitory effect”. The “binding to MM cells” value in the test with fresh MM tumor cells is “bind”.

The values above are taken from US20240165226A1, “COMBINATION TREATMENT OF CD38-EXPRESSING TUMORS” (GENMAB A/S, priority 2006, published 2024).
